# Measured values: paper PMC4597091
# Target: PepT2^ECD-S427C, labelled for MST (Rattus norvegicus) (UniProt Q63424)
# Test: MST; 1.5 μM labelled ECD (S437C or S427C, blue maleimide) with 0.03–1,000 μM ligand; 22°C; 25 mM MES pH 6.5, 100 mM NaCl
substance,measurement,value
trypsin (intestinal protease) (enzyme),Kd,6 µM
